In the supplement of paper PMC7125110:
± gives the standard error. Fewer inactive variants are shown than the library holds.

B1: glmS ribozyme (parent)
chain: AUAAAAGCGCCAGAACUACAGAAAUGUAGUUGACGAGGAGGAGGUUUAUCGAAUUUUCGGCGGAUGCCUCCAAA

How the values were obtained:
Settings in all cases: with glucosamine-6-phosphate
glucosamine-6-phosphate [1] = variants of: B1; assay: self-cleavage kobs at 40 uM GlcN6P; higher = faster cleavage; RNA array
Summary of the method: (§1)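 On sequenced MiSeq chips, barcoded ribozyme variants were made in situ by E. coli RNA polymerase and followed at 37 °C through a hybridised Cy3 probe. Glucosamine-6-phosphate was flowed in at 40 μM to 10 mM in HEPES/KCl/Mg(OAc)2 buffer. Exponential fits to normalised per-tile medians gave kobs, and weighted Michaelis–Menten fits gave kcat and KM.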

glucosamine-6-phosphate [2] = variants of: B1; assay: self-cleavage kobs at 160 uM GlcN6P; higher = faster cleavage; RNA array
Summary of the method: as §1

glucosamine-6-phosphate [3] = variants of: B1; assay: self-cleavage kobs at 640 uM GlcN6P; higher = faster cleavage; RNA array
Summary of the method: as §1

glucosamine-6-phosphate [4] = variants of: B1; assay: self-cleavage kobs at 2500 uM GlcN6P; higher = faster cleavage; RNA array
Summary of the method: as §1

glucosamine-6-phosphate [5] = variants of: B1; assay: self-cleavage kobs at 10000 uM GlcN6P; higher = faster cleavage; RNA array
Summary of the method: as §1

Variant | self-cleavage kobs at 40 uM GlcN6P (glucosamine-6-phosphate [1]) [s⁻¹] | self-cleavage kobs at 160 uM GlcN6P (glucosamine-6-phosphate [2]) [s⁻¹] | self-cleavage kobs at 640 uM GlcN6P (glucosamine-6-phosphate [3]) [s⁻¹] | self-cleavage kobs at 2500 uM GlcN6P (glucosamine-6-phosphate [4]) [s⁻¹] | self-cleavage kobs at 10000 uM GlcN6P (glucosamine-6-phosphate [5]) [s⁻¹]
C34G A64G | < 1e-05 | < 1e-05 | < 1e-05 | < 1e-05 | < 1e-05
A48G C61U G66C C70U | < 1e-05 |  |  |  | 
C34U A39G | < 1e-05 | < 1e-05 | < 1e-05 | < 1e-05 | < 1e-05
C10U C50G C70G | 5.33e-05 ± 1.6e-05 |  |  |  | 
A6C C11U A33C A36G U47G G59A | < 1e-05 |  | < 1e-05 |  | 
U31G G44A | < 1e-05 |  |  | 5.95e-05 ± 2.1e-05 | 9.7e-05 ± 2.6e-05
A53C C61U | < 1e-05 | < 1e-05 | < 1e-05 |  | 
C8U U65G | < 1e-05 | < 1e-05 | < 1e-05 | < 1e-05 | < 1e-05
G29U U31C C50G | 6.96e-05 ± 3.2e-05 |  |  |  | 5.39e-05 ± 2.3e-05
A6G U31A U46G C68G | < 1e-05 |  |  |  | < 1e-05
C10G U47A G60U C61U | < 1e-05 |  |  |  | 
A48U C67U C70U | < 1e-05 |  |  | < 1e-05 | 
C11U C58G C68U | 7.67e-05 ± 2.5e-05 | 0.000349 ± 9.1e-05 | 0.000262 ± 7e-05 |  | 5.66e-05 ± 1.6e-05
G44A C67U | 0.000707 ± 7e-05 | 0.00265 ± 0.00064 | 0.00449 ± 0.0011 | 0.006 ± 0.0018 | 0.0388 ± 0.0061
A14G G29U A36G | < 1e-05 |  |  |  | 
A6C U49C | < 1e-05 | < 1e-05 |  |  | < 1e-05
A15G C68A C70U | < 1e-05 |  |  |  | 
G13U G32A C50U | < 1e-05 |  |  | < 1e-05 | < 1e-05
G59C G60U | < 1e-05 | < 1e-05 | < 1e-05 | < 1e-05 | < 1e-05
A6G C67A C68U | < 1e-05 |  |  |  | 
A64C G66U C68G | < 1e-05 |  | < 1e-05 | < 1e-05 | 
C11G C16G | < 1e-05 | < 1e-05 |  | < 1e-05 | < 1e-05

Variant | self-cleavage kobs at 40 uM GlcN6P (glucosamine-6-phosphate [1]) [s⁻¹] | self-cleavage kobs at 160 uM GlcN6P (glucosamine-6-phosphate [2]) [s⁻¹] | self-cleavage kobs at 640 uM GlcN6P (glucosamine-6-phosphate [3]) [s⁻¹] | self-cleavage kobs at 2500 uM GlcN6P (glucosamine-6-phosphate [4]) [s⁻¹] | self-cleavage kobs at 10000 uM GlcN6P (glucosamine-6-phosphate [5]) [s⁻¹]
A39G C50G C58A | 0.000142 ± 4.6e-05 |  |  |  | 
G13U G38A A39U | < 1e-05 |  |  |  | 
G43U C58U | < 1e-05 | < 1e-05 | < 1e-05 |  | < 1e-05
C11A G41A C50G G59U | < 1e-05 |  |  |  | < 1e-05
U54G G62C U69C | < 1e-05 |  |  |  | < 1e-05
G13A G37C | < 1e-05 | < 1e-05 | < 1e-05 | < 1e-05 | < 1e-05
G9A G32C A52U | < 1e-05 |  |  |  | < 1e-05
U30C G37U | < 1e-05 |  |  |  | 
A39C C61A | < 1e-05 | < 1e-05 | < 1e-05 | < 1e-05 | < 1e-05
G59C U65G | < 1e-05 |  | < 1e-05 |  | < 1e-05
A6G U65C | < 1e-05 | < 1e-05 | < 1e-05 | < 1e-05 | < 1e-05
G13U A36U | < 1e-05 | < 1e-05 | < 1e-05 | < 1e-05 | < 1e-05
A33G G44C | < 1e-05 | < 1e-05 | < 1e-05 | < 1e-05 | < 1e-05
G44C U69G | < 1e-05 |  |  | < 1e-05 | < 1e-05
G29C A48G | < 1e-05 | < 1e-05 | < 1e-05 | < 1e-05 | 
C8A C11G | < 1e-05 | < 1e-05 | < 1e-05 | < 1e-05 | < 1e-05
G9A C50A U56C C67A | < 1e-05 |  | < 1e-05 | < 1e-05 | 
A15U A52U G66C | < 1e-05 | < 1e-05 |  |  | 
G35A C50G C71U | 0.000138 ± 3.5e-05 |  |  | 8.9e-05 ± 3.1e-05 | 0.000191 ± 3.6e-05
U54G C67U | 0.000313 ± 5.9e-05 | 0.000612 ± 0.00014 | 0.00333 ± 0.00057 | 0.00208 ± 0.00059 | 
C8G C50G C67A | 0.000144 ± 2.5e-05 |  |  |  | 0.000113 ± 1.8e-05
A48U A52G G63A | < 1e-05 |  |  |  | < 1e-05
